This note sets out measurements from US20080075726A1 (VACCINEX, published 2008).

In general, IC50 refers to the concentration that inhibits the measured activity by half. For orientation: Kd means the equilibrium constant for the complex coming apart.

For experiment [1], the target named is T1, recombinant human IL-6 (human, UniProt P05231 30-212, limits assumed).
T1 construct: also called rhIL6; human recombinant IL-6
Briefly: flow cytometry blocking assay: biotinylated rhIL-6 (12 ng/ml on the sheet; 12.5 ng/ml in paragraph 183) pre-incubated with the mAb, then U266 cells bearing IL-6 receptor added; cell-bound IL-6 shown with streptavidin-PE; readout % inhibition. How it is done: FcR-blocked U266 cells (about 250,000 cells) were then added and co-incubated for another 30 min on ice. […] After washing, the cells were analyzed by flow cytometry.
On the technique in general: A flow cytometer gives signals particle by particle.

Experiment [2] deals with T1, recombinant human IL-6. Briefly: competition ELISA, rhIL-6 in solution against captured IL-6 (Affinity (nM) by IC50 ELISA). The method, then:
(§1) Briefly, plates were coated with 2 μg/ml of mBE4 capture antibody in coating buffer, 100 μl per well. The plates were incubated overnight. Next, the plates were washed 3 times and tapped dry. The plates were then blocked with 200 μl per well of Assay Diluent or 10% FBS in PBS and incubated for 2 hours. […] The reaction was left at RT for 3-4 hours. […] Next, the plates were washed 3 times and tapped dry. […] The plates were incubated for 1-2 hours. The plates were washed 3 times and tapped dry. […] The plates were incubated at RT for 2 hours. (Therefore, any unbound mAb at this point will be measured by ELISA). Plates were then washed 5 times and tapped dry. 100 μl of detection Ab goat anti-human IgG F(ab)′2-HRP (Jackson lab) was added at 1:20,000 dilutions or 1:40,000 dilutions (depending on lot) and the plates were incubated for 1-2 hours. The plates were washed 7 times and tapped dry. Next, the Developer Substrate (equal parts of each reagent in the kit) was pre-mixed and allowed to warm to room temperature before use. Then 100 μl of Developer was added to each well. The plates were allowed to develop for 15 minutes un-sealed in a drawer in the dark. Finally, developing was stopped by adding 100 μl of 2N H₂SO₄ to each well and plates were read as Endpoint at 450 nm-[…].
(§2) IC50 ELISA was performed as described above. Affinity analysis by Biacore was performed according to manufacturer protocols using HBS-EP buffer (Biacore AB).
For orientation: ELISA stands for enzyme-linked immunosorbent assay.

Experiment [3] concerns the target T1, recombinant human IL-6. Description: competition ELISA, rhIL-6 in solution against captured IL-6. The method, then:
as §1

For experiment [4], the target named is T2, recombinant murine IL-6 (murine, UniProt P08505 25-211).
T2 sequence (looked up): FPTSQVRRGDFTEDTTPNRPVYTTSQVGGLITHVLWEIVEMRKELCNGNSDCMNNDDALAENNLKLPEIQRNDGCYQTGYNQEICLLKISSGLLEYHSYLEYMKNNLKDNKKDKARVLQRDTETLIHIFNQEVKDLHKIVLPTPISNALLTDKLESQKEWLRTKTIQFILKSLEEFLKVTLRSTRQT
Description: ELISA on coated murine IL-6; human mAbs detected with rabbit anti-human IgG-HRP; series 100, 50, 25, 12.5 ng/ml (antibody by paragraph 42; headed mIL-6 (ng/ml) on the sheet). How it is done:
(§3) For sample “0,” no antibody was added. […] Each column represents a mean of two experiments +/− standard deviation.
(§4) For experiments using human monoclonal antibodies, IgG1 Kappa (human myeloma IgG1; Sigma-Aldrich Co.) mAb was used as a control. Rabbit anti-human IgG-HRP (Dako) was added at a dilution of 1/10,000 at 100 μl/well for detection of mAbs. […] For pAbs, Streptavidin-HRP (Prozyme) was added for detection at 100 μl/well. Antibodies were applied at concentrations of 12.5, 25, 50, and 100 ng/ml.

Experiment [5] has as its target T1, recombinant human IL-6. Briefly: Biacore 2000, mAb captured on anti-human IgG CM5 chip, human IL-6 40-1.25 nM injected. The method, then: as §2
The target of experiment [6] is T3, recombinant rat IL-6 (rat, UniProt P20607 25-211).
T3 sequence (looked up): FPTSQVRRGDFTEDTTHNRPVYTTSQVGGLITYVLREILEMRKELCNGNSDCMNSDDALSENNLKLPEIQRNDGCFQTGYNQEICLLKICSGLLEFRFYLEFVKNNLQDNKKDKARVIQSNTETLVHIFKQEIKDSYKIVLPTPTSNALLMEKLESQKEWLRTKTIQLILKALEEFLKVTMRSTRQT
Briefly: ELISA on coated rat IL-6; human mAbs detected with rabbit anti-human IgG-HRP; series 100, 50, 25, 12.5 ng/ml (antibody by paragraph 42; headed mIL-6 (ng/ml) on the sheet). How it is done:
as §3, §4

Experiment [7] has as its target T4, natural monkey IL-6 from rhesus monkey serum (rhesus monkey, UniProt P51494 28-212, limits assumed).
T4 sequence (looked up): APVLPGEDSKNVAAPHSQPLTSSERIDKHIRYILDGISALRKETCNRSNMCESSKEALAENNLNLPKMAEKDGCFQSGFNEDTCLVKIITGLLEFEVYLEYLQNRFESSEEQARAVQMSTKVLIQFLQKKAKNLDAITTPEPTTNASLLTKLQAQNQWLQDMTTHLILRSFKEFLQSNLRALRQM
Briefly: competition ELISA (U-Cytech Monkey IL-6 kit): rhesus monkey serum (plasma on the sheet) at dilutions 1/10 to 1/640 with the antibody at 5 µg/ml as competitor of the kit's coated IL-6 antibody; a lower OD than the sample '0' means binding.

The target of experiment [8] is human insulin (human, UniProt P01308 25-54; P01308 90-110, limits assumed). Description: ELISA on a panel of control antigens (data not shown).
human insulin, sequence (P01308 25-54 limits assumed, chain 1 of 2): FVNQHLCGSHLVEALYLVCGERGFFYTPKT
human insulin, sequence (P01308 90-110 limits assumed, chain 2 of 2): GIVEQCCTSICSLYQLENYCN
In experiment [9] the target is human serum albumin (human, UniProt P02768 25-609). Described as above.
human serum albumin, sequence (P02768 25-609 limits assumed): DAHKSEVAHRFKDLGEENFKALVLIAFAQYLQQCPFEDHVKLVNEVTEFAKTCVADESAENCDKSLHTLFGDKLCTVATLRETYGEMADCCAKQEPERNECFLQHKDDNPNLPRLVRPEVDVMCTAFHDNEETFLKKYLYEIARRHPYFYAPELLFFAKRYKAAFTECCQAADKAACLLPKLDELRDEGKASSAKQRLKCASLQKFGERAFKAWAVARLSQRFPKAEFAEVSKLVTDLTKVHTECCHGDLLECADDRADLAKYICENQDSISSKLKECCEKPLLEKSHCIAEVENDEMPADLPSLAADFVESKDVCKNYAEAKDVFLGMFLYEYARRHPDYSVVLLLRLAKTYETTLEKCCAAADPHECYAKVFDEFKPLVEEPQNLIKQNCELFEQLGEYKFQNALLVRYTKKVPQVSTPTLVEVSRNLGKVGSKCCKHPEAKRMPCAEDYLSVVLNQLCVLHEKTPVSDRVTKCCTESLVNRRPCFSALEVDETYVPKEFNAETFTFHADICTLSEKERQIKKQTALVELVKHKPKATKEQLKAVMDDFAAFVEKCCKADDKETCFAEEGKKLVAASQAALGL
Experiment [10] addresses bovine serum albumin (bovine, UniProt P02769 25-607). Described as above.

bovine serum albumin, sequence (P02769 25-607 limits assumed): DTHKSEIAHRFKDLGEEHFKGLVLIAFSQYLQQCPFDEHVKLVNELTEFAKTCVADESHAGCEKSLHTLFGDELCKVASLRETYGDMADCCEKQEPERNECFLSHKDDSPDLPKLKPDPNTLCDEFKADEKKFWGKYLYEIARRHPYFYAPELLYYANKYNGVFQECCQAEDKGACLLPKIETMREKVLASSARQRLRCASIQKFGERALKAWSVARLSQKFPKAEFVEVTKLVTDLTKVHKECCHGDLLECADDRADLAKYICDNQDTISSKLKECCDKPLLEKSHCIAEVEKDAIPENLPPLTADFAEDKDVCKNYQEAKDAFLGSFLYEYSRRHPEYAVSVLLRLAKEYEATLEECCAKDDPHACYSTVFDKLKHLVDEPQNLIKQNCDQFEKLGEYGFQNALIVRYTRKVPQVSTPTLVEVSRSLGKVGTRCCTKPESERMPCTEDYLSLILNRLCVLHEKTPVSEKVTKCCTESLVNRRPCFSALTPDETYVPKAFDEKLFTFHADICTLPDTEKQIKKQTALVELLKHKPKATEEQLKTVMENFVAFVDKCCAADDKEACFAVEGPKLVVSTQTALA

B1: murine mAb B-E8 (antibody, V domains shown)
VH: QVTLKESGPGILKPSQTLSLTCSFSGFSLSTSGMGVGWIRQPSGKGLEWLAHIWWDDDKYYNPSLKSQLTISKDTSRNQVFLKITSVDTADTATYYCARSYDDYLYYALDYWGQGTSVTVSS
VL: DIVMTQSPATLSVTPGDRVSLSCRASQSISDYLHWYQQKSHESPRLLIKSVSQSISGIPSRFSGSGSGSDFTLSINSVEPEDVGVYYCQNGHSFPLTFGAGTKLELK
modifications: Biotinylated in FIG. 16.
notes: Murine anti-IL-6 antibody from which the human mAbs were derived; also called Elsilimomab
Take B1: the “IC50 (read off the curve)” value in [1] was roughly 0.02 µg/mL.

B2: mAb 88 (chimeric B-E8 control antibody) (antibody, V domains shown)
VH: B1 VH
VL: B1 VL
modifications: Biotinylated in FIG. 16.
notes: Chimeric form of murine B-E8; also called control mAb 88
B2: the IC50 came out at 10 pM in experiment [2] and 500 pM in experiment [3]. Also, the binding result in experiment [4] is reported as “no binding (tested: 100 ng/ml (Ab: 0.1 µg/ml in the title))”; in [6], “no binding (tested: 100 ng/ml)”. Further, the dissociation constant (Kd) in [5] was found to be 20 pM. Moreover, the “IC50 (read off the curve)” value in experiment [1] is roughly 0.02 µg/mL.

B3: mAb 1339 (antibody, human IgG1, kappa, V domains shown)
VH: QVTLKESGPTLVKPTQTLTLTCSFSGFSLSTSGVGVGWVRQPPGKALEWLAFIWWDDDKYYSPSLESRLTITKDTSKNQVVLTMTNMDPVDTATYYCARSADDYLYYSFDTWGQGTLVTVSS
VL: DIQMTQSPSSLSAFVGDGVTMTCWASQSINDYLNWYHQRPGEAPELLVFAASNLQIGVPSRFRGSGSETYFTLTINSLQPEDSGTYFCQNAHSFPLTFGGGTKLEIKR
As for B3, the IC50 in experiment [2] and in experiment [3] was 26 pM in each case. Besides, the binding result in experiment [4] is on record as “no binding (tested: 100 ng/ml (Ab: 0.1 µg/ml in the title))”; in experiment [6], “no binding (tested: 100 ng/ml)”; in experiment [7] it was “binds”; in experiment [8] it was “no binding”; in experiment [9], “no binding”; in [10] it was “no binding”. In addition, the Kd in [5] was 71 pM.
